B1: PRMT2(1-95&219-433): internal deletion of amino acid 96-218, deleting the AdoMet binding domain (protein)
chain: MATSGDCPRSESQGEEPAECSEAGLLQEGVQPEEFVAIADYAATDETQLSFLRGEKILILRQTTADWWWGERAGCCGYIPANHVGKHVDEYDPEDFEFMIESILYARDAWLKEDGVIWPTMAALHLVPCSADKDYRSKVLFWDNAYEFNLSALKSLAVKEFFSKPKYNHILKPEDCLSEPCTILQLDMRTVQISDLETLRGELRFDIRKAGTLHGFTAWFSVHFQSLQEGQPPQVLSTGPFHPTTHWKQTLFMMDDPVPVHTGDVVTGSVVLQRNPVWRRHMSVALSWAVTSRQDPTSQKVGEKVFPIWR
B2: PRMT4: protein methyltransferase CARM1 (PRMT4) (protein)
chain: AAAAAAVGPGAGGAGSAVPGGAGPCATVSVFPGARLLTIGDANGEIQRHAEQQALRLEVRAGPDSAGIALYSHEDVCVFKCSVSRETECSRVGKQSFIITLGCNSVLIQFATPNDFCSFYNILKTCRGHTLERSVFSERTEESSAVQYFQFYGYLSQQQNMMQDYVRTGTYQRAILQNHTDFKDKIVLDVGCGSGILSFFAAQAGARKIYAVEASTMAQHAEVLVKSNNLTDRIVVIPGKVEEVSLPEQVDIIISEPMGYMLFNERMLESYLHAKKYLKPSGNMFPTIGDVHLAPFTDEQLYMEQFTKANFWYQPSFHGVDLSALRGAAVDEYFRQPVVDTFDIRILMAKSVKYTVNFLEAKEGDLHRIEIPFKFHMLHSGLVHGLAFWFDVAFIGSIMTVWLSTAPTEPLTHWYQVRCLFQSPLFAKAGDTLSGTCLLIANKRQSYDISIVAQVDQTGSKSSNLLDLKNPFFRYTGTTPSPPPGSHYTSPSENMWNTGSTYNLSSGMAVAGMPTAYDLSSVIASGSSVGHNNLIPLANTGIVNHTHSRMGSIMSTGIVQGSSGAQGSGGGSTSAHYAVNSQFTMGGPAISMASPMSIPTNTMHYGS

Key:
E2F1 = assay: E2F reporter assay (GAL4-E2F1 activator, luciferase); assay type: cell-based; conditions: U2OS cells, in the presence of the E2F1 activator
Procedure: HeLa cells, U2OS cells, and Saos2 cells were seeded at a density of 5×10^4 per well in 24-well plates. Cells were transfected 24 hours later with the indicated plasmid and with 20 ng of pRL-TK (Promega) as an internal control to normalize transfection efficiency. The amount of CMV promoter in the transfection was kept constant using empty vector. Cells were harvested at 30 or 36 hour after transfection and luciferase activity was analyzed by Dual-Luciferase Reporter Assay System (Promega). Luciferase activity was measured as a ratio of Firefly to Renilla. To study endogenous E2F activity in MEFs, PRMT-2^+/+ or PRMT-2^−/− MEFs were seeded at a density of 3×10^5 per well in 6-well plates. Cells were transfected 24 hours later with 3 μg of E2F4B-Luc and 10 ng of pRL-TK plasmid. Cells were harvested at 36 hour after transfection and analyzed for luciferase activity as described above.

RB = biological target: T1, RB (Homo sapiens, UniProt P06400); assay: In vitro binding assay with GST-RB; conditions: S35-labeled in vitro translated protein
T1 construct: coding region of RB cDNA was subcloned into pGEX-6P (Amersham/Pharmacia) for generation of GST-RB; made in house
T1 sequence (P06400 1-928): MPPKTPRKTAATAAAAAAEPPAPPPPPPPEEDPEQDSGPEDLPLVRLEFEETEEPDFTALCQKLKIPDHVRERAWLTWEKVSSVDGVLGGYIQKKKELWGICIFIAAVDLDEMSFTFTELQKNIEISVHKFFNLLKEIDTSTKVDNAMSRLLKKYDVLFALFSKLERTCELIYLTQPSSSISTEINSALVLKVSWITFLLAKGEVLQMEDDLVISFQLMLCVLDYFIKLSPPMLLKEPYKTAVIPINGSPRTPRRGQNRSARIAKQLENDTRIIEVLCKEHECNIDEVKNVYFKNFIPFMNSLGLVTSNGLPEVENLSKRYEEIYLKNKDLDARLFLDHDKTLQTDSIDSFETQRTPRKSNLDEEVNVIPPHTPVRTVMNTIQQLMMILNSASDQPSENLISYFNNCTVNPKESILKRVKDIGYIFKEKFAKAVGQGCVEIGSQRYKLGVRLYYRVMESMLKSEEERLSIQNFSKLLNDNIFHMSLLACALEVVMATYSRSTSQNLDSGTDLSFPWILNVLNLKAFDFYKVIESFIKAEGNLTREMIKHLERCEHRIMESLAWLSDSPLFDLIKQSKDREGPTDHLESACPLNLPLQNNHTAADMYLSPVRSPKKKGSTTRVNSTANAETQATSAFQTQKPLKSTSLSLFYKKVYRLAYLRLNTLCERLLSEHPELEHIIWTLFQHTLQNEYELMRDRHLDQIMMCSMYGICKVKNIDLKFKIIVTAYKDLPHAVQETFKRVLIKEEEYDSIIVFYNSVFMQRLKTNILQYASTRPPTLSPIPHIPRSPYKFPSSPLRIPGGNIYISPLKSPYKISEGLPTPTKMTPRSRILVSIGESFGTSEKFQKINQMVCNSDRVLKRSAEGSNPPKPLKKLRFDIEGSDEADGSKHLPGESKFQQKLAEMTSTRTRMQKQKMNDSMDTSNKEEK
Procedure: The crude cell lysate of the GST-fusion proteins was prepared and purified according to the manufacture's protocol (Amersham/Pharmacia). [^35S]-methionine-labeled protein was produced by in vitro transcription/translation using the TNT T7-coupled reticulocyte lysate system (Promega). [^35S]-methionine-labeled protein and GST-fusion protein bound to glutathione sepharose 4B beads were incubated in 500 μl of HNE buffer (50 mM Hepes, pH 7.8, 150 mM NaCl, 1 mM EDTA, 1 mM DTT, 1% NP40, and 1× protease inhibitor mix (Complete: Roche)) at 4° C. for 1 hour. Beads were washed four times with HNE buffer, and then analyzed on an SDS-PAGE gradient gel (4-15%). For the detection of endogenous PRMT-2 interaction with RB, MEFs were lysed with WCL buffer (50 mM Hepes, pH 7.8, 400 mM NaCl, 2 mM EDTA, 1 mM DTT, 0.2% NP40, 10% Glycerol, 20 mM α-glycerophosphate, 5 mM NaF, 0.1 mM NaVO4, and 1× protease inhibitor mix). Then, 1 mg of whole cell extracts were incubated with HNE buffer without DTT and 3 μg of antibodies as indicated. The immune complexes were isolated using protein G beads, and washed four times with HNE buffer. The precipitated protein was boiled with SDS-loading buffer and resolved on SDS-PAGE. For immunoprecipitation of HA-tagged protein, transfected cells were lysed with RIPA buffer (phosphate buffer saline containing 1% NP40, 0.5% sodium deoxycholate, 0.1% SDS, and 1× Complete), and 100 μg of whole cell lysates were immunoprecipitated with anti-HA antibodies and washed in RIPA buffer. Western blot analysis was performed as described in Tanner et al. (1998). Circ Res, 82, 396-403.
To test whether PRMT family members interact with RB, S^35-labeled in vitro translated PRMT1, PRMT2, PRMT3, and PRMT4 (CARM1) were incubated with GST-RB fusion proteins or control GST, and co-precipitated labeled proteins were resolved by SDS-PAGE. […] An equal amount of GST-RB and GST were loaded in each lane, verified by Coomassie staining (FIG. 8B).

HIV-1 LTR = assay: HIV-1 reporter transcription, transient co-transfection; assay type: cell-based, human; conditions: 293T cells, co-transfection
Procedure: Cell culture, transfection, and reporter gene assays. The E1A-transformed, human kidney cell line, 293, and NIH-3T3 cells were maintained in Dulbecco's Modified Eagle Medium (DMEM) supplemented with 10% fetal calf serum and penicillin-streptomycin at 37° C. in 5% carbon dioxide in tissue culture grade Petri dishes. PRMT-2−/− mouse embryo fibroblasts (MEFs) and wild type MEFs were prepared from day 13.5 embryos and maintained in DMEM supplemented with 10% fetal calf serum. MEFs at passage 4 were used in this experiment. Lipofectamine Plus™ reagent (Boehringer Mannheim) was used to transfect both 293 and NIH-3T3 cells according to directions from the manufacturer. […] TNF-α stimulation of cells was done using recombinant TNF-α (200 U/ml) for 12 hours. Transfected cells were harvested at 36 hours, and CAT activity was assayed on 10 to 100 μg of protein from whole cell extracts. CAT assays were performed essentially as described in Leung, K. & Nabel, G. J. Nature 333, 776-778 (1988). To analyze the κB-reporter activity in MEFs, cells were transfected with the reporter (2×kB-Luc) and PRL-TK vector (Promega) using FuGENE6 transfection reagent (Roche). Luciferase activity was analyzed by Dual-Luciferase Reporter Assay System (Promega).
To determine whether PRMT-1, 2 or 3 could affect NF-κB function, their potential to regulate effects on transcription of the human immunodeficiency virus type 1 (HIV-1) was examined. Transient co-transfections were performed using PRMT1, PRMT2 and PRMT3 expression plasmids with an HIV-1 reporter plasmid in the human renal epithelial cell line, 293T.
To determine its dependence on NF-κB, human immunodeficiency virus type 1 (HIV-1) reporter plasmids with wild-type (WT) or mutant (ΔκB) sites were co-transfected transiently with control or PRMT2 expression plasmids in the different cell lines. […] The KB effect was dose-dependent and was also observed with other inducers of NF-κB, including phorbol […] (PMA) (FIG. 2B, right panel).

Row | Molecule | E2F1 activity (E2F1) | binding to RB (RB) | effect on transcription of the HIV-1 reporter plasmid (HIV-1 LTR)
1 | B1 | failed to repress E2F1 activity | did not bind GST-RB | –
2 | B2 | – | do not bind RB | failed to inhibit NF-κB transcription specifically

Reference: US20060239990A1, “Protein Arginine N-Methyltransferase 2 (PRMT-2)” (priority 2003, published 2006)
